Here are results for one substance from publication PMC8889352.

For the experiment, the target named is IL-12 receptor.

18/12/TxM triple-cytokine fusion protein, sequence (Q13261 whole entry, looked up, the tested form may be a part): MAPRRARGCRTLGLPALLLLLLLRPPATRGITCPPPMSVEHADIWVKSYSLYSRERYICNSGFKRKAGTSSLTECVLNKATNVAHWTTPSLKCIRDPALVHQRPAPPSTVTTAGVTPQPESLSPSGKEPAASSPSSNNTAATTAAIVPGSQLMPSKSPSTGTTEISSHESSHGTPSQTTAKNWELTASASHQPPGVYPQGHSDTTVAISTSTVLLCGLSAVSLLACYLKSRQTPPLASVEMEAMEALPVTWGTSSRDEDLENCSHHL
18/12/TxM triple-cytokine fusion protein, sequence (P29459 whole entry, looked up, the tested form may be a part): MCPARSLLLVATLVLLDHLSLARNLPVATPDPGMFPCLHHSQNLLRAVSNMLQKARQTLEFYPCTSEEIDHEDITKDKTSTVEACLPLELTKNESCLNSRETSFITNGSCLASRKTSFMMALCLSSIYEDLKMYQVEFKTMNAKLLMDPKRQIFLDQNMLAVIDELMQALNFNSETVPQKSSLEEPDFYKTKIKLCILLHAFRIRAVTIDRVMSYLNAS
18/12/TxM triple-cytokine fusion protein, sequence (P29460 whole entry, looked up, the tested form may be a part): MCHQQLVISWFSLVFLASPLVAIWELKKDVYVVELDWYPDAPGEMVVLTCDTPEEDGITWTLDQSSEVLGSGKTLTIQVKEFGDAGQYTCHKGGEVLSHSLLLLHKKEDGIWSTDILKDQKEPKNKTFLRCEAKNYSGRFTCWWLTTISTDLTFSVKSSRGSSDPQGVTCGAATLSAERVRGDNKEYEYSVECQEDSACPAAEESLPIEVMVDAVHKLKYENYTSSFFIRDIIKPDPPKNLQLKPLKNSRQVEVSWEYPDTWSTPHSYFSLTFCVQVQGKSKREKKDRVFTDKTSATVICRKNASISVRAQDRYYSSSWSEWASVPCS
18/12/TxM triple-cytokine fusion protein, sequence (Q14116 whole entry, looked up, the tested form may be a part): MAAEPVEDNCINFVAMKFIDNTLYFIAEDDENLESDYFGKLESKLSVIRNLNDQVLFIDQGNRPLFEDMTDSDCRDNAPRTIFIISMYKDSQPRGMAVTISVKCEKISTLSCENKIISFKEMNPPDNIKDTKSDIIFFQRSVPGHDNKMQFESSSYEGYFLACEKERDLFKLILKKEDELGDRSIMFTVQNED

In the case of “18/12/TxM triple-cytokine fusion protein (from UniProt Q14116 37-193; P29460 23-328; P29459 23-219; Q13261 31-95) (complex)”, the activation of IL-12 reporter HEK-Blue (HEK12) cells (STAT4-inducible SEAP), EC50 stood at 0.0991 nM.
